Broadly, the Kd is the equilibrium constant for the complex coming apart. A low value points to tighter binding.

First the molecules themselves.
T1: extracellular ActRIIb (SEQ ID NO: 74) fused to the N-terminus of hFc through a GGG linker (human, UniProt Q13705 20-134)
T1 construct: also called ActRIIb (41-155); wild-type extracellular ActRIIb; not shown: human Fc (hFc)
T1 sequence: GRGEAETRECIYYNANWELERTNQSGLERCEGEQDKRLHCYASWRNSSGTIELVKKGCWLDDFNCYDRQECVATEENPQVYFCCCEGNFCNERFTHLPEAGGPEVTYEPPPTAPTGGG

B1: extracellular ActRIIa/bΔ9 variant (SEQ ID NO: 58) fused to the N-terminus of hFc through a GGG linker (Fc fusion)
chain: GAILGRSETQECLFYNANWELDRTNQTGVERCEGEKDKRLHCYATWRNISGSIEIVKKGCWLDDFNCYDRTDCVETKENPQVYFCCCEGNMCNEKFSYFPEMEVTQPTSGGG
notes: also called ActRIIA/BΔ9-Fc; not shown: human Fc (hFc)
B2: ActRIIa/b+ (SEQ ID NO: 150) fused to the N-terminus of hFc through a GGG linker (Fc fusion)
chain: B1 chain with D22E, K57A, K77E
notes: also called ActRIIab+ variant; not shown: human Fc (hFc)
B3: extracellular ActRIIa/bΔ9 min variant (SEQ ID NO: 6) fused to the N-terminus of hFc through a GGG linker (Fc fusion)
chain: B1 chain with R31P, Y43F, R47K, F65I
notes: not shown: human Fc (hFc)
B4: ActRIIa/b-delta 9m3 (SEQ ID NO: 41) fused to the N-terminus of hFc through a GGG linker (Fc fusion)
chain: B1 chain with Y43F
notes: also called ActRIIa/bΔ9m3 variant; not shown: human Fc (hFc)
B5: ActRIIa/b-delta 9m2 (SEQ ID NO: 38) fused to the N-terminus of hFc through a GGG linker (Fc fusion)
chain: B1 chain with F65I
notes: also called ActRIIa/bΔ9m2 variant; not shown: human Fc (hFc)
B6: extracellular ActRIIa/b variant (SEQ ID NO: 69) fused to the N-terminus of hFc through a GGG linker (Fc fusion)
chain: B1 chain with D22E, K77E
notes: also called ActRIIA/B-Fc; not shown: human Fc (hFc)
B7: ActRIIa/b-delta 9m4 (SEQ ID NO: 44) fused to the N-terminus of hFc through a GGG linker (Fc fusion)
chain: B1 chain with R31P
notes: also called ActRIIa/bΔ9m4 variant; not shown: human Fc (hFc)
B8: ActRIIa/bmax1 (SEQ ID NO: 70) fused to the N-terminus of hFc through a GGG linker (Fc fusion)
chain: B1 chain with F14Y, D22E, K36Q, K77E
notes: also called ActRIIa/bmax1 variant; not shown: human Fc (hFc)
B9: ActRIIa/bmax2 (SEQ ID NO: 71) fused to the N-terminus of hFc through a GGG linker (Fc fusion)
chain: GAILGRSETQECLFYNANWELERTNQTGVERCEGEKDKRLHCYATWRNISGSIEIVKKGCWLDDFNCYDRTDCVETEENPQVYFCCCEGNMCNEKFSYFPEMEVTQPTSNPGGG
notes: also called ActRIIa/bmax2 variant; not shown: human Fc (hFc)
B10: extracellular ActRIIa (SEQ ID NO: 73) fused to the N-terminus of hFc through a GGG linker (Fc fusion)
chain: AILGRSETQECLFFNANWEKDRTNQTGVEPCYGDKDKRRHCFATWKNISGSIEIVKQGCWLDDINCYDRTDCVEKKDSPEVYFCCCEGNMCNEKFSYFPEMEVTQPTSGGG
notes: also called ActRIIa (19-127); wild-type extracellular ActRIIa; not shown: human Fc (hFc)
B11: extracellular ActRIIb variant (SEQ ID NO: 149) fused to the N-terminus of hFc through a GGG linker (Fc fusion)
chain: GRGEAETRECIFYNANWEKDRTNQSGLEPCYGDQDKRRHCFASWKNSSGTIELVKQGCWLDDINCYDRQECVAKKDSPEVYFCCCEGNFCNERFTHLPEAGGPEVTYEPPPTAPTGGG
notes: also called ActRIIb/a variant; ActRIIb/a; not shown: human Fc (hFc)
B12: BMP-9 (ligand, UniProt Q9UK05 320-429, looked up)
chain: SAGAGSHCQKTSLRVNFEDIGWDSWIIAPKEYEAYECKGGCFFPLADDVTPTKHAIVQTLVHLKFPTKVGKACCVPTKLSPISVLYKDDMGVPTLKYHYEGMSVAECGCR
notes: also called bone morphogenetic protein 9
B13: ActRIIa/bmax3 variant (SEQ ID NO: 72) fused to the N-terminus of hFc through a GGG linker (Fc fusion)
chain: GAILGRSETQECLFYNANWELERTNQTGVERCEGEKDKRLHCYATWRNISGSIEIVKKGCWLDDFNCYDRTDCVETEENPQVYFCCCEGNMCNEKFSYFPEMEVTQPTSNPVTPKGGG
notes: not shown: human Fc (hFc)
B14: growth differentiation factor 11 (GDF11) (ligand, UniProt O95390 299-407, looked up)
chain: NLGLDCDEHSSESRCCRYPLTVDFEAFGWDWIIAPKRYKANYCSGQCEYMFMQKYPHTHLVQQANPRGSAGPCCTPTKMSPINMLYFNDKQQIIYGKIPGMVVDRCGCS
B15: Activin B (ligand, UniProt P09529 293-407, looked up)
chain: GLECDGRTNLCCRQQFFIDFRLIGWNDWIIAPTGYYGNYCEGSCPAYLAGVPGSASSFHTAVVNQYRMRGLNPGTVNSCCIPTKLSTMSMLYFDDEYNIVKRDVPNMIVEECGCA
B16: Activin A (ligand, UniProt P08476 311-426, looked up)
chain: GLECDGKVNICCKKQFFVSFKDIGWNDWIIAPSGYHANYCEGECPSHIAGTSGSSLSFHSTVINHYRMRGHSPFANLKSCCVPTKLRPMSMLYYDDGQNIIKKDIQNMIVEECGCS

In assay [1] the target is B16. Briefly: SPR, Biacore 3000; receptor fusion captured on chip, ligand in solution.
Assay [2] deals with B15. The assay is described as above.
The target in assay [3] is B14. Described as above.
The assay “BMP-9” has as its target B12. The assay is described as above.
Assay [4] addresses B16. Briefly: SPR, Biacore 3000; receptor fusion captured on the chip by antibody, ligand run in a concentration series. Background: SPR reads the build-up and loss of mass on a sensor chip optically.
The target of assay [5] is B15. The assay is described as above.
Assay [6] concerns the target B14. Described as above.
Assay [7] concerns the target B10. Briefly: SPR, Biacore 3000; receptor fusion captured on chip, ligand in solution.
Assay [8] concerns the target T1, extracellular ActRIIb (SEQ ID NO: 74) …. Described as above.

Residue numbers refer to the chain shown, from its start.

For B1, the Kd with Activin A [1] worked out at 0.213 nM; with Activin B [2], 0.0123 nM; in assay [3] it was 0.115 nM; with BMP-9 it was 10 nM.

Consider B2, for which the dissociation constant Kd stood at 0.242 nM with Activin A [1], 0.282 nM in the assay with Activin B [2] and 26 nM with BMP-9.

On to B3, for which the Kd with Activin A [1] was determined as 0.31 nM; with Activin B [2], 0.088 nM; in assay [3] it was 0.114 nM; with BMP-9, 17 nM.

In the case of B4, the equilibrium dissociation constant (Kd) with Activin A [1] was determined as 0.071 nM; in the assay with Activin B [2], 0.0725 nM; in assay [3], 0.117 nM; with BMP-9, 1.2 nM.

As for B5, the dissociation constant (Kd) was 0.17 nM in the assay with Activin A [1], 0.104 nM with Activin B [2], 0.222 nM in assay [3] and 13 to 18 nM with BMP-9.

Take B6: the Kd is 0.542 nM with Activin A [1], 0.103 nM with Activin B [2], 0.186 nM in assay [3] and 4 nM in the assay with BMP-9.

On to B7, for which the Kd with Activin A [1] was 0.375 nM; with Activin B [2] it was 0.254 nM; in [3], 0.394 nM; with BMP-9 it was 14 to 20 nM.

Regarding B8, the dissociation constant (Kd) in the assay with Activin A [1] was 0.232 nM; in the assay with Activin B [2] it was 0.097 nM; in assay [3] it was 0.236 nM; with BMP-9 it was 5.6 nM.

Consider B9, for which the Kd was determined as 0.135 nM with Activin A [1], 0.039 nM with Activin B [2], 0.113 nM in assay [3] and 5 nM with BMP-9.

For the molecule B10, the results for the equilibrium dissociation constant (Kd) in the assay with Activin A [1] and with Activin B [2] were 1 nM and 0.373 nM, respectively.

Turning to B11, the binding result (with Activin A [4]; with Activin B [5]; in assay [6]) was “no binding” each time.

With B12, in assay [7], the Kd was found to be 25 nM.

B13: the dissociation constant (Kd) with Activin A [1] came out at 0.089 nM; in the assay with Activin B [2], 0.043 nM; in assay [3] it was 0.214 nM; in the assay with BMP-9, 3.3 nM.

For the molecule B14, binding in assay [7] was characterised by a dissociation constant (Kd) of 0.081 nM.

In the case of B15, in assay [8], the equilibrium dissociation constant (Kd) was 0.023 nM.

B16 gave a Kd in [8] of 0.063 nM.
